Source: US20260027190A1, “OVARIAN TUMOR DEUBIQUITINASE OXIDATION AND USES THEREOF” (The University of Vermont and State Agricultural College, priority 2022, published 2026)

How the values were obtained:
[1] = tested on: mouse tracheal epithelial (MTE) cells; assay: Extracellular glutamate in cell culture supernatant of MTE cells; type: cell-based; conditions: direct administration of recombinant protein to MTE cells
Excerpt: A regulator of GSH homeostasis is the transporter system xC-, which exports glutamate and concomitantly imports cystine in a 1:1 ratio. Once inside the cells, cystine is reduced to two cysteines, the latter being the rate limiting amino acid required for GSH synthesis. These relationships were examined further. […] To address whether IL1B-induced increases in GSH are system xC- dependent, two system xC- inhibitors, erastin (Er) and sulfasalazine (SAS) were used. Cells were pretreated for one hour, followed by IL1B treatment for 24 hours. Then, GSH levels were measured in cells exposed to increasing doses of Er or SAS (FIG. 2G). Extracellular glutamate levels in cell culture supernatant of cells pretreated with 0.5 micromolar Er (left) or 100 micromolar SAS (right) for 1 hour before IL1B stimulation were also measured (FIG. 2H). […] System xC- inhibition is known to induce ferroptosis, an iron-dependent mode of cell death characterized by increased lipid peroxidation. However, no changes in cell viability using erastin (5 micromolar) or sulfasalazine (500 micromolar) were detected (FIG. 2I; P-value*<0.05, ***<0.001, ****<0.0001).
Primary mouse tracheal epithelial (MTE) cells were isolated from C57BL/6NJ wild-type or C57BL6/NJ mice lacking Glrx1 gene and cultured. Cells were grown on collagen coated plastic plates or transwell inserts with media change every 2 days until confluency. For interleukin 1B (IL1B) treatment: cells were incubated in plain Dulbecco's Modified Eagle Medium (DMEM): F12 media containing 6 mM glucose and 2 mM glutamine overnight followed by stimulation with 10 ng/ml IL1B or 0.1% bovine serum albumin (BSA) in phosphate buffered saline (PBS) (vehicle control) for 24 hours. Treatment with crastin, sulfasalazine or BSO occurred 1 hour before IL1B stimulation. Media and cells were collected for further analysis. For growing H522 and OTUB1-CRISPR-H522 cells: Roswell Park Memorial Institute (RPMI) media supplemented with 10% fetal bovine serum (FBS) and 1% pen/strep was used to grow the cells. Plasmid over-expression and OTUB1 knock-down experiments were done when cells were 60-70% confluent.
Glutamate in media was measured using Biovision kit following manufacturer's protocol.

OTUB1 = assay: OTUB1-SSG: GSH immunoprecipitation followed by OTUB1 Western blot; type: cell-based, mouse; conditions: cells treated with recombinant protein
Protocol: OTUB1 was one of the PSSG targets detected in IL1B-stimulated epithelial cells raising the possibility that S-glutathionylation of OTUB1 affects the stability of SLC7A11. To investigate this, immunoprecipitation of GSH followed by Western Blotting of OTUB1 in MTE cells treated with vehicle or IL1B was performed. Dithiothreitol (DTT) was incubated with cell lysates prior to immunoprecipitation as a negative control. OTUB1 levels from whole cell lysates were used as the input control. Increases in OTUB1 S-glutathionylation (OTUB1-SSG) in response to IL1B were observed, with further increases occurring in cells lacking Glrx (FIG. 4G), consistent with the role of GLRX as a deglutathionylating enzyme. Western blots were performed using cells treated with the WT- or C23S-mutant GLRX recombinant protein to examine the presence of glutaredoxin (FIG. 4H) and total PSSG (FIG. 4I) (P-value*<0.05, **<0.01, ***<0.001, ****<0.0001). GAPDH was used as a loading control. Glutathione was evaluated in MTE cells treated with recombinant WT- or C23S-mutant GLRX (FIG. 4J) and glutamate in cell culture supernatant of MTE cells treated with WT or the C23S mutant GLRX was also evaluated (FIG. 4K). […]

KRAS-mutant A549 cells = assay: A549 cell viability / cisplatin-induced killing; type: cell-based
H522 cells = assay: Synergy of GLRX and cisplatin in killing of H522 cells (Synergy Finder); type: cell-based; conditions: Chou-Talalay method (Synergy Finder)
OTUB1 and UBCH5A = assay: Interaction between OTUB1 and UBCH5A; type: cell-based; conditions: FIG. 14D
Excerpt: OTUB1 was previously shown to interfere with ubiquitination and subsequent proteasomal degradation of SLC7A11. Overexpression of OTUB1 decreased ubiquitinated SLC7A11 (FIG. 17). […] The OTUB1-mediated attenuation of ubiquitination can occur through multiple mechanisms. OTUB1 can act as a canonical deubiquitinase that cleaves K48 chains. Alternatively, OTUB1 also can inhibit the function of E2 conjugating enzymes, including UBCH5 and OTUB1 has been found in a complex with E2 enzymes. Additionally, binding of E2 enzymes to OTUB1 can also promote OTUB1 deubiquitinase activity dependent on the ratio of ubiquitin-charged E2 to uncharged E2 enzyme and levels of free ubiquitin. OTUB1 D88 binds E2 enzymes and suppresses Ub-conjugating activity. Stabilization of SLC7A11 by OTUB1 has been speculated to involve directly binding between OTUB1 and SLC7A11 as well as the inhibition of E2 enzymes. […] These collective observations, along with observed increases in GSH following expression of OTUB1-C91S (FIG. 6C) support a non-canonical role of OTUB1 in augmenting GSH. […] To address this possible scenario, the present disclosure determined whether OTUB1-S-glutathionylation affected the interaction between OTUB1 and UBCH5A which requires the N-terminal region containing C23. […]

B1: GLRX: recombinant wild-type glutaredoxin protein, deglutathionylating enzyme, administered directly to cells (protein, UniProt P35754 2-106, looked up)
Glutaredoxin-1: AQEFVNCKIQPGKVVVFIKPTCPYCRRAQEILSQLPIKQGLLEFVDITATNHTNEIQDYLQQLTGARTVPRVFIGKDCIGGCSDLVSLQQSGELLTRLKQIGALQ
With B1 the extracellular glutamate [1] was “decreased”, the “OTUB1-SSG (OTUB1 S-glutathionylation)” value (OTUB1) was “decreased” and the viability (KRAS-mutant A549 cells; GLRX alone) was “did not decrease”. For the same molecule, the cisplatin-induced killing (KRAS-mutant A549 cells; GLRX with cisplatin) was “promoted”, the “synergy with cisplatin (ZIP Score)” value (H522 cells) was greater than 10 and the “interaction between OTUB1 and UBCH5A” value (OTUB1 and UBCH5A) was “decreases”.
